± gives the standard deviation of the averaged measurements.
test system: ATP; assay: switch fluorescence ratio, 500 uM ATP over buffer (Cy3 cluster intensity, sum of 5 cycles each) (fold (ratio)); higher = stronger signal-on switching upon ATP binding; sequences stand for … in TCGTCGGCAGCGTCAGATGTGTATAAGAGACAGTTTTTTTTTTTTTTTTTTTTTTTTT…TC; conditions: aptamer strand: ATP DNA aptamer (quencher-CACCTGGGGGAGTATTGCGGAGGAAGG + anchor), 100 nM annealed; ATP concentration: 500 uM
Outline: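 Exposure to 500 uM ATP lasted 15 min at 22 °C before imaging, and a selection-buffer image was taken beforehand, for Cy3-labelled switching-strand clusters on a modified Illumina MiSeq flow-cell annealed to 100 nM quencher-labelled ATP aptamer. Five buffer/ATP cycles were run with NaOH stripping and re-annealing between them. The fluorescence ratio per cluster is summed target-cycle over summed buffer-cycle Cy3 intensity, averaged per switch-domain sequence. Clusters outside 100-1000 RFU were excluded.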

GTAAGACTAA and TTGAAAAATG are within error of each other in switch fluorescence ratio: 0.997 ± 0.011 for the first, 1.03 ± 0.028 for the second.

First: TCTACGGGAT
Second: GGGTATCACG
The switch fluorescence ratio of the first is higher: 2.54 ± 0.2 for the first, 1 ± 0.017 for the second.

Going from GGAAGCGTTC to AAAGAGCGCC, the switch fluorescence ratio falls from 1.03 ± 0.04 to 0.947 ± 0.03.

CAACCCGGTA and TTAAAGTCGA are within error of each other in switch fluorescence ratio: 1.51 ± 0.7 for the first, 1.0194 ± 0.00069 for the second.

GGGAATCCTT and GATTGAATGG are within error of each other in switch fluorescence ratio: 1.03 ± 0.0018 for the first, 0.985 ± 0.055 for the second.

CGGAAGGGAG and CGGGGTTTGC are within error of each other in switch fluorescence ratio: 0.996 ± 0.015 for the first, 0.997 ± 0.015 for the second.

First: CGTTCTGAGT
Second: TTTACTATTG
The switch fluorescence ratio of the first is lower: 0.955 ± 0.016 for the first, 1.03 ± 0.03 for the second.

ACCGGTTACC and CCGGGATCTT are within error of each other in switch fluorescence ratio: 1.09 ± 0.029 for the first, 1.05 ± 0.013 for the second.

Going from CGAGTATGGG to CGATGGGTGC, the switch fluorescence ratio falls from 0.9859 ± 0.0011 to 0.946 ± 0.015.

Compared with CGGGTGGGGC, CAGCTGCATT is higher in switch fluorescence ratio: 1.02 ± 0.052 for the first, 1.305 ± 0.013 for the second.

AAAGTCTATT and CATAGGCCGT are within error of each other in switch fluorescence ratio: 0.99 ± 0.02 for the first, 1.03 ± 0.047 for the second.

CAGGACCCGA and CGCGTCTGGG are within error of each other in switch fluorescence ratio: 0.99 ± 0.025 for the first, 1.01 ± 0.042 for the second.

AGCGGGAACG and TTTAAAGCTT are within error of each other in switch fluorescence ratio: 1.005 ± 0.0013 for the first, 1.01 ± 0.032 for the second.

ACAATATAGA and TGCTTGGCTA are within error of each other in switch fluorescence ratio: 1.0126 ± 8.1e-07 for the first, 0.98 ± 0.033 for the second.

GCGTCTATGA and CTGTGGCTCG are within error of each other in switch fluorescence ratio: 1 ± 0.016 for the first, 0.9986 ± 0.0057 for the second.

CAAAGCAAAA and CTATAACAAT are within error of each other in switch fluorescence ratio: 2.36 ± 2 for the first, 1.02 ± 0.021 for the second.

AAACGAGGGT and AGAAATTGGG are within error of each other in switch fluorescence ratio: 1.02 ± 0.03 for the first, 0.992 ± 0.028 for the second.

ACATATGGGT and TGGGGAATAA are the same in switch fluorescence ratio: 1.01 ± 0.039 for the first, 1.01 ± 0.022 for the second.

TATTTGGAGG and AAAATGGGTG are within error of each other in switch fluorescence ratio: 0.992 ± 0.0044 for the first, 0.976 ± 0.015 for the second.

First: TCTTAGGCTG
Second: CCGGGCTCTG
The switch fluorescence ratio of the first is lower: 1.01 ± 0.018 for the first, 1.06 ± 0.013 for the second.

TTATAGAGGT and CCGGGGCCTG are within error of each other in switch fluorescence ratio: 1.01 ± 0.011 for the first, 1.05 ± 0.095 for the second.

CATTGAATCT and TTACTGATGG are within error of each other in switch fluorescence ratio: 1.02 ± 0.02 for the first, 0.99 ± 0.033 for the second.

CATTTGAGGG and CGTCGGGGAT are within error of each other in switch fluorescence ratio: 0.988 ± 0.034 for the first, 1 ± 0.037 for the second.

TTTTTTCATT and TTCTGAAACA are within error of each other in switch fluorescence ratio: 1.02 ± 0.052 for the first, 0.969 ± 0.036 for the second.

ATTATCTACT and CTGATAACAT are within error of each other in switch fluorescence ratio: 1.04 ± 0.026 for the first, 1.02 ± 0.018 for the second.

CGGGTTAGGA and CAGGATGCAT are within error of each other in switch fluorescence ratio: 1.02 ± 0.036 for the first, 1.01 ± 0.02 for the second.

AAGCCAAGTA and GCATTCCGTT are within error of each other in switch fluorescence ratio: 1 ± 0.023 for the first, 1.02 ± 0.011 for the second.

TGGTTTTGAT and TGGCAACACC are within error of each other in switch fluorescence ratio: 1.001 ± 0.0047 for the first, 1.94 ± 1.2 for the second.

CCAGTTGGCA and GGGGGTAAGA are within error of each other in switch fluorescence ratio: 1 ± 0.031 for the first, 0.981 ± 0.028 for the second.

TGTAGTCCTT and TCCATATGGT are within error of each other in switch fluorescence ratio: 0.949 ± 0.015 for the first, 0.975 ± 0.023 for the second.

GCAAAAAGGA and TGACGGTTTA are within error of each other in switch fluorescence ratio: 1.6 ± 0.89 for the first, 1.023 ± 0.0016 for the second.

AGTGGGGTAC and GTTGTTTTTG are within error of each other in switch fluorescence ratio: 1.03 ± 0.032 for the first, 1.02 ± 0.028 for the second.

Compared with TTTTATAAAA, CCTCATTTTT is lower in switch fluorescence ratio: 1.03 ± 0.019 for the first, 0.988 ± 0.0099 for the second.

First: CTTTTATAGT
Second: CGGCGATCGC
The switch fluorescence ratio of the first is lower: 0.984 ± 0.02 for the first, 1.04 ± 0.011 for the second.

CGGGATGATT and AGGAACGCGG are within error of each other in switch fluorescence ratio: 0.998 ± 0.044 for the first, 1.04 ± 0.018 for the second.

TTCCTCCTTC and GGCGATTTTT are within error of each other in switch fluorescence ratio: 1.83 ± 0.89 for the first, 1.013 ± 0.0022 for the second.

TTTTTCAACT and TCTTAACGGC are within error of each other in switch fluorescence ratio: 1.03 ± 0.036 for the first, 1.04 ± 0.05 for the second.

GGCGGCTACG and TCATCTTAAT are within error of each other in switch fluorescence ratio: 1.003 ± 0.0035 for the first, 0.992 ± 0.044 for the second.

GACAACGTA and GCGCTACGGG are within error of each other in switch fluorescence ratio: 0.9967 ± 0.0095 for the first, 1.01 ± 0.019 for the second.

GAACCTCGTG and TATATTAGCT are within error of each other in switch fluorescence ratio: 1.03 ± 0.035 for the first, 1.01 ± 0.026 for the second.

TTAAGGTTTA and TGGGAGGTGT are within error of each other in switch fluorescence ratio: 1.02 ± 0.038 for the first, 1.04 ± 0.028 for the second.

TTCATATGCG and TGGGGGATAT are within error of each other in switch fluorescence ratio: 0.995 ± 0.016 for the first, 1.05 ± 0.052 for the second.

GAGTAGGAGC and CGCGGTGTCC are the same in switch fluorescence ratio: 1.02 ± 0.033 for the first, 1.02 ± 0.011 for the second.

CGTTTACCTT and ATGGGCTTCT are within error of each other in switch fluorescence ratio: 1.0086 ± 0.001 for the first, 1.018 ± 0.0091 for the second.

TAAGTGCTGG and TCCTCGGGGG are within error of each other in switch fluorescence ratio: 1.01 ± 0.016 for the first, 0.989 ± 0.027 for the second.

Compared with ATTATACGGC, TACCATGGTT is lower in switch fluorescence ratio: 1.056 ± 0.0042 for the first, 0.9841 ± 0.0061 for the second.

GGGGGGGGGA and TTTGATATTA are within error of each other in switch fluorescence ratio: 1.01 ± 0.039 for the first, 0.994 ± 0.026 for the second.

TTCAAGCGTT and GGTGTGGGGG are within error of each other in switch fluorescence ratio: 0.982 ± 0.019 for the first, 1.01 ± 0.04 for the second.

ATAGTTGGAT and CGTAGTGGAA are within error of each other in switch fluorescence ratio: 0.98 ± 0.011 for the first, 0.9919 ± 0.0061 for the second.

ATAAAAATAT and GCAAGAGGGT are within error of each other in switch fluorescence ratio: 1.01 ± 0.035 for the first, 1 ± 0.028 for the second.

TTTGATGGCT and ATCAGTGGGG are within error of each other in switch fluorescence ratio: 1.02 ± 0.039 for the first, 0.991 ± 0.042 for the second.

Going from CATTAGGTGT to TTTACTTCTA, the switch fluorescence ratio falls from 1.16 ± 0.037 to 1.05 ± 0.017.

ATTAAACGGG and ATTCAGGTTC are within error of each other in switch fluorescence ratio: 0.997 ± 0.012 for the first, 0.996 ± 0.032 for the second.

Going from TATCATGTTG to TCAGTAGGCT, the switch fluorescence ratio rises from 0.9987 ± 0.0047 to 1.043 ± 0.0032.

First: TTTTAGGTAA
Second: ATCGGGATAG
The switch fluorescence ratio of the first is lower: 0.9745 ± 0.0034 for the first, 1.04 ± 0.044 for the second.

TTTGTTCCAG and GCTGCGGGCT are within error of each other in switch fluorescence ratio: 1.01 ± 0.06 for the first, 1.18 ± 0.24 for the second.

Compared with TAGTAGGGGG, TCTTAGGTTG is higher in switch fluorescence ratio: 0.9691 ± 0.0061 for the first, 1.028 ± 0.0062 for the second.

AGAAAATTGG and AATAGCATGG are within error of each other in switch fluorescence ratio: 1.01 ± 0.03 for the first, 1.03 ± 0.024 for the second.

CGGGCTGTTG and TAAGTGGGCC are within error of each other in switch fluorescence ratio: 0.963 ± 0.033 for the first, 1 ± 0.036 for the second.

GGGTGGCTTT and TGGAAGGGGA are within error of each other in switch fluorescence ratio: 0.9872 ± 0.0083 for the first, 1 ± 0.013 for the second.

Going from CATGTATGGG to GGGGTGTGAC, the switch fluorescence ratio rises from 0.9833 ± 0.0095 to 1.022 ± 0.0026.

Compared with TGGATTATTG, AAGGGACTTG is higher in switch fluorescence ratio: 0.9445 ± 0.0019 for the first, 0.995 ± 0.018 for the second.

TCGAACTAGG and ACACTCATGG are within error of each other in switch fluorescence ratio: 1 ± 0.018 for the first, 1.03 ± 0.068 for the second.

Compared with GGGCAACGGG, CCTTTTTGT is lower in switch fluorescence ratio: 1.2 ± 0.12 for the first, 0.993 ± 0.027 for the second.

TTATAACTTT and GTGATATGGG are the same in switch fluorescence ratio: 1.02 ± 0.028 for the first, 1.02 ± 0.036 for the second.

Compared with TCACTGGGTA, TGACGAGCGA is higher in switch fluorescence ratio: 0.995 ± 0.014 for the first, 2.25 ± 0.24 for the second.

GATGTATTCG and TCGCGAGTAA are within error of each other in switch fluorescence ratio: 1.001 ± 0.0089 for the first, 1.04 ± 0.076 for the second.

GGGTTGCATG and TTATAAAAAG are within error of each other in switch fluorescence ratio: 0.976 ± 0.016 for the first, 0.974 ± 0.042 for the second.

GGGGGTATTG and ACACGAGGCT are within error of each other in switch fluorescence ratio: 0.99 ± 0.041 for the first, 1.04 ± 0.029 for the second.

Going from AGGGTCCACG to CGTTTTTAAT, the switch fluorescence ratio rises from 0.947 ± 0.015 to 1.01 ± 0.021.

Going from CGATCACCTG to CCTGGTGCAT, the switch fluorescence ratio rises from 1.02 ± 0.063 to 2.15 ± 0.056.

GGATTAGTTT and CTATCTTCGG are within error of each other in switch fluorescence ratio: 0.994 ± 0.029 for the first, 0.974 ± 0.038 for the second.

GGTTATTTGA and TTTATGAGAG are within error of each other in switch fluorescence ratio: 0.974 ± 0.028 for the first, 1.08 ± 0.092 for the second.

CGGAACAGCA and TTACGGGCTC are within error of each other in switch fluorescence ratio: 1.08 ± 0.051 for the first, 0.985 ± 0.058 for the second.

TACTGGTCCT and TTTGACAGCG are within error of each other in switch fluorescence ratio: 1.03 ± 0.038 for the first, 1.02 ± 0.066 for the second.

TTAAGACCAC and CACAAGGGCC are within error of each other in switch fluorescence ratio: 1.01 ± 0.012 for the first, 1.03 ± 0.018 for the second.

AATGCGGGGA and AGTTTGTGTC are within error of each other in switch fluorescence ratio: 1.03 ± 0.017 for the first, 0.965 ± 0.12 for the second.

TGGAGCTGCA and CCATATTTTT are within error of each other in switch fluorescence ratio: 1.04 ± 0.09 for the first, 0.985 ± 0.015 for the second.

Work on GCTCTAGTGG yielded a switch fluorescence ratio of 1.01 ± 0.022.
